Test results as given in paper PMC9816786 (2022).

Target: T1, PCSK9 (Homo sapiens (Human), UniProt Q8NBP7)
T1 chain: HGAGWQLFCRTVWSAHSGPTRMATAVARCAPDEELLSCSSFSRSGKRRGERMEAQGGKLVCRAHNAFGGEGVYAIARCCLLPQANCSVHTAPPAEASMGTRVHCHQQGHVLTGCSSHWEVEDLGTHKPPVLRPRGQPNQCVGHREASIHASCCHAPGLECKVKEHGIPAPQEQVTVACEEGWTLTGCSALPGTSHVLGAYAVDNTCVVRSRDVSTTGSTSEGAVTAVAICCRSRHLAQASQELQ
Test: BLI; pH 7.5

- Kd: 1360 nM
B1: CAP1 (protein)
chain: ADMQNLVERLERAVGRLEAVSHTSDMHRGYADSPSKAGAAPYVQAFDSLLAGPVAEYLKISKEIGGDVQKHAEMVHTGLKLERALLVTASQCQQPAENKLSDLLAPISEQIKEVITFREKNRGSKLFNHLSAVSESIQALGWVAMAPKPGPYVKEMNDAAMFYTNRVLKEYKDVDKKHVDWVKAYLSIWTELQAYIKEFHTTGLAWSKTGPVAKELSGLPSGPSAGSCPPPPPPCPPPPPVSTISCSYESASRSSLFAQINQGESITHALKHVSDDMKTHKNPALKAQSGPVRSGPKPFSAPKPQTSPSPKRATKKEPAVLELEGKKWRVENQENVSNLVIEDTELKQVAYIYKCVNTTLQIKGKINSITVDNCKKLGLVFDDVVGIVEIINSKDVKVQVMGKVPTISINKTDGCHAYLSKNSLDCEIVSAKSSEMNVLIPTEGGDFNEFPVPEQFKTLWNGQKLVTTVTEIAG
